Measurements: publication doi:10.1101/2024.04.03.587999 (bioRxiv, 2024)

Molecular target: T1, Outer membrane protein A of Acinetobacter baumannii (recombinant AbOmpA) (Acinetobacter baumannii, UniProt Q6RYW5 20-356)
T1 sequence (looked up): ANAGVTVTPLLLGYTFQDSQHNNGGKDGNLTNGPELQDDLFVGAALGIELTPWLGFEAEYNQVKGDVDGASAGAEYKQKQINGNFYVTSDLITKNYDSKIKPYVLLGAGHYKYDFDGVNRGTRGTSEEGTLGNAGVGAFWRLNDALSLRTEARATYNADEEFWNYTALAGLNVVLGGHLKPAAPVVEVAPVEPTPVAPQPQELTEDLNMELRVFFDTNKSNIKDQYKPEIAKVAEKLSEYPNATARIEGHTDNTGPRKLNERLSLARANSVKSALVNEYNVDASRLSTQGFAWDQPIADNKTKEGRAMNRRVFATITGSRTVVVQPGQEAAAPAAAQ
Test: SPR

QMGFMTSPKHSV [P92] was tested, and the Kd was 7.84 nM.
